Test results from US6821947.

Target: human recombinant endorepellin tagged with His6, from 293-EBNA cells (human) (UniProt P98160)
Assay: cell-based or functional assay

UniProt P98160, sequence (P98160 3687-4391 limits assumed): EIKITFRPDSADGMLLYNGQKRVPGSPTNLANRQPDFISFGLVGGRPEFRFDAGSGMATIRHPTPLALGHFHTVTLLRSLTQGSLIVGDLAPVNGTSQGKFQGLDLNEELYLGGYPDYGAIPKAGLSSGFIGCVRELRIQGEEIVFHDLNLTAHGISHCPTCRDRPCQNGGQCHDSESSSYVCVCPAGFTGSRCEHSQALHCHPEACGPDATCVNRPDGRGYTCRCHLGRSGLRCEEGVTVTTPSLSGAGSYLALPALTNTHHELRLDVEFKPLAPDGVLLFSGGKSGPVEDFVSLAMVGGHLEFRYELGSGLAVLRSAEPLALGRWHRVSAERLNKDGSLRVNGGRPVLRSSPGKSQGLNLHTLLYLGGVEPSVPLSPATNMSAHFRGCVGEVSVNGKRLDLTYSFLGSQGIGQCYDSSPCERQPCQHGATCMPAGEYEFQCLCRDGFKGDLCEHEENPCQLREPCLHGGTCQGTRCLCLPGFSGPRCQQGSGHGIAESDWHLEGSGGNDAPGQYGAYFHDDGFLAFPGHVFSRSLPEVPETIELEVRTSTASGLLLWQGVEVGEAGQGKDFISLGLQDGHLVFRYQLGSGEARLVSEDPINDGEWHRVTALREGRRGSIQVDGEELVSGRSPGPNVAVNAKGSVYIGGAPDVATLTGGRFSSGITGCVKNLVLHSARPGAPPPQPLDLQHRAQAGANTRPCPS

recombinant endostatin purified from Pichia pastoris yeast cells (Calbiochem-Novabiochem)
VEGF-induced HUVEC migration through fibrillar collagen (molar ratio of endostatin/endorepellin): 1
